Molecular target: T1, La(4-325) (Homo sapiens, UniProt P05455 4-325)
T1 sequence: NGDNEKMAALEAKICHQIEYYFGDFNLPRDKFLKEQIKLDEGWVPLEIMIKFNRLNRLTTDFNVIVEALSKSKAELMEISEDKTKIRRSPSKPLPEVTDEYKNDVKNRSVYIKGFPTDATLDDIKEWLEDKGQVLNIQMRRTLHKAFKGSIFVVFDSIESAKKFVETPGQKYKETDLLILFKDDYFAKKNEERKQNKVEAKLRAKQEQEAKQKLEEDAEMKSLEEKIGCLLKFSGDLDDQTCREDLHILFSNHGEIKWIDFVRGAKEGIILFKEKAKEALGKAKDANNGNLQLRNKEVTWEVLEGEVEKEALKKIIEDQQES
Experiment: ITC

B1: 27-mer ssRNA (ssRNA)
RNA: ACCUAACCACCACUACCACCUCCCACA
binding result: no binding

— PMC3273827
